The values below come from patent US20160137713A1 (HANALL BIOPHARMA, published 2016).

Assay [1] has as its target T1, human FcRn on HEK293 cells (human, UniProt P55899 24-365; P61769 21-119).
T1 construct: whole, on cells; also called hFcRn
The assay can be described thus: FACS competition on hFcRn HEK293 cells at pH 6.0; remaining binding of 100 nM Alexa488-labeled hIgG1 (m14) with 1000 nM competitor antibody, percent of the tube without competitor. The method, then: In stable HEK293 cells expressing human FcRn, the blocking of the antibody against FcRn was analyzed by FACS. The antibody was diluted in binding buffer (PBS pH 6.0, 10 mM EDTA) at concentrations of 2,000 nM, […] to make 50 μl of dilutions, which were dispensed into tubes. […] Stable HEK293 cells were diluted in binding buffer at a concentration of 2,500,000 cells/ml, and 40 μl of the cell dilution was added to each of the labeled antibody-containing tubes. Thus, a final volume of 100 μl contained 100,000 cells, 100 nM labeled antibody and 1000 nM, 500 nM or 250 nM competitor antibody. The cells were washed once with 150 μl of buffer (pH 6.0), and pellets were obtained therefrom and resuspended in 150 μl of buffer having pH difference. The suspension was transferred into a tube for FACS analysis. The cells were analyzed by FACS using BD FACSDiva™ v6.1.3 software (BD Bioscience). The results of the analysis were expressed as mean fluorescence intensity (MFI).
The MFI of the test group was processed after subtracting the MFI (background signal) measured in cells alone.

For the next assay, the target named is T2, soluble human FcRn (human, UniProt P55899 24-297; P61769 21-119).
T2 construct: extracellular domain;mature; Non-covalent heterodimer secreted by 293 cells, purified on IgG Sepharose; also called shFcRn; soluble FcRn
In words: SPR, shFcRn immobilised, pH 6.0. The method, then: Measurement of the binding ability of antibody by SPR was performed by immobilizing shFcRn as a ligand onto a Proteon GLC chip (Bio-Rad) and measuring affinity.
The analysis of ligand and analyte was performed using a Proteon GLC chip, and the interaction was analyzed at a pH of 6.0 and a pH of 7.4. Immobilization of the ligand was activated by injecting a 1:1 mixture of 1×EDAC (EDC) and 1× Surfo-NHS for 5 minutes. shFcRn was diluted in 10 mM sodium acetate (pH 4.5) at a concentration of 25 μg/ml and added to the ligand at a flow rate of 30 μl/min for 5 minutes. […] The analyte antibody was allowed to flow on the immobilized chip at a flow rate of 30 μl/min. […] The association time of the analyte antibody was 240 seconds, and the dissociation time was 600 seconds. Regeneration of the chip was performed by injecting 10 mM glycine (pH 2.5) at a flow rate of 100 μl/min for 18 seconds. Based on sensorgrams resulting from six concentrations of the analyte, kinetics analysis was performed using Proteon XPR36 software.

T2 sequence (P55899 24-297, chain 1 of 2): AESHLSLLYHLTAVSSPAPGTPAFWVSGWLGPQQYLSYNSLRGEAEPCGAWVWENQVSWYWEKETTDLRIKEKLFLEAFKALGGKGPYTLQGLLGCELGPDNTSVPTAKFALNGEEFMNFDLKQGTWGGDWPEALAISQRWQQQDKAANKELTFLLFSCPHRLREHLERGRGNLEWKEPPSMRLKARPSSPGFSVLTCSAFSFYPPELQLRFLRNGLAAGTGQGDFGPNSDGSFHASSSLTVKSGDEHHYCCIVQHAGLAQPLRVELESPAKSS
T2 sequence (P61769 21-119, chain 2 of 2): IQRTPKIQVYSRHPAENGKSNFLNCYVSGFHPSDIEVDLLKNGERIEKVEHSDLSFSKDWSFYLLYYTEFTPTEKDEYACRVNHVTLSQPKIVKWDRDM
T1 sequence (P55899 24-365, chain 1 of 2): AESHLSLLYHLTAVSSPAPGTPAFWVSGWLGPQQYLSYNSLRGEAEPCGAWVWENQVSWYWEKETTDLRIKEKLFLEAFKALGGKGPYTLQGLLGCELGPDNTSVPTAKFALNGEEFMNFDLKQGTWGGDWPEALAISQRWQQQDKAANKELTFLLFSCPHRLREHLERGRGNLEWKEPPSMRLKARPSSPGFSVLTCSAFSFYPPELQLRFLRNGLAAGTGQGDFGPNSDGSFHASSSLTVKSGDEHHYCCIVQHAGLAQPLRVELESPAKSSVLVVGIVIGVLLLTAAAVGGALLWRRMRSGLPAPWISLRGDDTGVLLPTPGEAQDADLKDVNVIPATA
T1 sequence (P61769 21-119, chain 2 of 2): as the sequence (P61769 21-119, chain 2 of 2) above

B1: HL161-11H (antibody, V domains shown)
VH: QMQLVESGGGLVQPGRSLRLSCAASGFTFSSYAMHWVRQAPGKGLEWVAVISYDGSNKYYADSVKGRFTISRDNSKNTLYLQMNSLRSEDTAVYYCSRGSGGRDAFDVWGQGTMITVSS
VL: DIQMTQSPSTLSASVGDRVTITCRASQSISSRLAWYQQKPGKAPKLLIYKASSLETGVPSRFSGSGSGTEFTLTISSLQPDDFATYYCQQTNSFPLTFGGGTKVEIK
notes: Whole human IgG from pNATAB vectors
As for B1, the “Relative MFI(%) at 1000nM” value in assay [1] is 51.8%. In the assay with soluble human FcRn, this molecule yielded a koff of 0.00034 s⁻¹ and an on-rate constant (kon) of 970000 M⁻¹ s⁻¹.

As a reminder, the koff is the first-order rate constant of dissociation. A high value points to a short-lived complex. In general, kon refers to a measure of how fast the partners come together. A high value points to fast association.
